Measurements published in article doi:10.1101/2021.03.07.433908 (bioRxiv, 2021).

Target: the molecule itself
Assay: pulsed field gradient diffusion NMR

B1: Human αB-crystallin (natural protein)
chain: MDIAIHHPWIRRPFFPFHSPSRLFDQFFGEHLLESDLFPTSTSLSPFYLRPPSFLRAPSWFDTGLSEMRLEKDRFSVNLDVKHFSPEELKVKVLGDVIEVHGKHEERQDEHGFISREFHRKYRIPADVDPLTITSSLSSDGVLTVNGPRKQVSGPERTIPITREEKPAVTAAPKK
modifications: 15N labelled (HSQC spectra); 2H/13CH3 Ile δ1, Val γ1/γ2, Leu δ1/δ2 labelled (binding studies and diffusion analyses)
stoichiometry N: 28
